Measurements: patent US20250042994A1 (HAINAN SIMCERE ZAIMING PHARMACEUTICAL, published 2025)
Residue numbers refer to the chain shown, from its start.

T1: Human CD19-his protein (human, UniProt P15391 20-291)
T1 construct: bought protein; also called recombinant human CD19-His; CD19 full-length protein; not shown: His tag
T1 sequence (looked up): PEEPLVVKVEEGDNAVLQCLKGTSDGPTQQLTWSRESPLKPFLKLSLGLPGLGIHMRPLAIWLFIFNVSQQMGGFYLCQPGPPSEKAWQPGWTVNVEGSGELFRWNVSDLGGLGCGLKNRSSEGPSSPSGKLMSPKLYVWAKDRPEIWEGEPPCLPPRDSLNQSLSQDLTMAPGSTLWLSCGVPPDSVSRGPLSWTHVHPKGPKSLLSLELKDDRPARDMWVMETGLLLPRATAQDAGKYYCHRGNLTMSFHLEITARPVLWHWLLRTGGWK

T2: human CD19 on CHO-K1-human CD19 cells (human, UniProt P15391 20-556)
T2 construct: whole, on cells; also called CHO-K1-human CD19-2C8
T2 sequence (looked up): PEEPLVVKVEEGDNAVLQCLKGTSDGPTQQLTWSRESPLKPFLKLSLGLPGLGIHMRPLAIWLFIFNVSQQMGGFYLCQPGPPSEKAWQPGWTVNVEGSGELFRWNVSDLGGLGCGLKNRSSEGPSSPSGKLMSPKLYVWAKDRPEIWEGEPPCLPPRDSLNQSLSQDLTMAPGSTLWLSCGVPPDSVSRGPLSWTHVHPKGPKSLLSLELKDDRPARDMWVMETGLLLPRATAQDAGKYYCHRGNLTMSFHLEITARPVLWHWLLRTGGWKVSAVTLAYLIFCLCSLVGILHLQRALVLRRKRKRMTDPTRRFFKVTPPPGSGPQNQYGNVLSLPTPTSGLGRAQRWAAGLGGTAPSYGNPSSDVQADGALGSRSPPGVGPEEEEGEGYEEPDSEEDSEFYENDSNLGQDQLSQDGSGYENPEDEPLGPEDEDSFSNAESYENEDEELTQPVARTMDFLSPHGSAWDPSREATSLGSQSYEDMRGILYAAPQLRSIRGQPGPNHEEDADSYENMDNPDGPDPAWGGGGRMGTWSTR

T3: human CD19 exon1-3-His tag protein (human, UniProt P15391 20-186, limits assumed)
T3 construct: membrane-distal part of the extracellular region, made in HEK293E cells; not shown: His tag
T3 sequence (looked up): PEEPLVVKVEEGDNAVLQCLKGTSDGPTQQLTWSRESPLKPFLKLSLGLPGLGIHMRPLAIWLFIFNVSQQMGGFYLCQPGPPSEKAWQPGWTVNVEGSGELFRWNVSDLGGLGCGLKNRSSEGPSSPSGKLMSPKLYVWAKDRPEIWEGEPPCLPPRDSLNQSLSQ

T4: human CD19 on Raji cells (human, UniProt P15391 20-556)
T4 construct: whole, on cells
T4 sequence (looked up): T2 sequence (looked up)

B1: F3.121.4-L1H2 (antibody, mouse IgG1, kappa, V domains shown)
VH: EVQLVQSGAEVKKPGASVKVSCKASGYTFTNYWMHWVRQAPGQGLEWMGEIDPSDNYANYNQEFQGRVTITVDKSASTAYMELSSLRSEDTAVYYCARHDGYFGALDYWGQGTTVTVSS
VL: EIVLTQSPATLSLSPGERATLSCSASSSISSNYLHWYQQKPGQAPRFLIYRTSNLASGIPARFSGSGSGTDFTLTISSLEPEDFAVYYCQQASSIPRMFTFGQGTKLEIKR
notes: humanized antibody of F3.121.4, VL1+VH2, murine IgG1 constant regions
B2: F3.121.4-L1H3 (antibody, mouse IgG1, kappa)
heavy: EVQLVQSGAEVKKPGASVKVSCKASGYTFTNYWMHWVRQRPGQGLEWMGEIDPSDNYANYNQEFQGRVTITVDKSASTAYMELSSLRSEDTAVYYCARHDGYFGALDYWGQGTTVTVSSAKTTPPSVYPLAPGSAAQTNSMVTLGCLVKGYFPEPVTVTWNSGSLSSGVHTFPAVLQSDLYTLSSSVTVPSSTWPSETVTCNVAHPASSTKVDKKIVPRDCGCKPCICTVPEVSSVFIFPPKPKDVLTITLTPKVTCVVVDISKDDPEVQFSWFVDDVEVHTAQTQPREEQFNSTFRSVSELPIMHQDWLNGKEFKCRVNSAAFPAPIEKTISKTKGRPKAPQVYTIPPPKEQMAKDKVSLTCMITDFFPEDITVEWQWNGQPAENYKNTQPIMDTDGSYFVYSKLNVQKSNWEAGNTFTCSVLHEGLHNHHTEKSLSHSPGK
light: EIVLTQSPATLSLSPGERATLSCSASSSISSNYLHWYQQKPGQAPRFLIYRTSNLASGIPARFSGSGSGTDFTLTISSLEPEDFAVYYCQQASSIPRMFTFGQGTKLEIKRADAAPTVSIFPPSSEQLTSGGASVVCFLNNFYPKDINVKWKIDGSERQNGVLNSWTDQDSKDSTYSMSSTLTLTKDEYERHNSYTCEATHKTSTSPIVKSFNRNEC
notes: humanized antibody of F3.121.4, VL1+VH3, murine IgG1 constant regions
B3: F3.121.4-L1H1 (antibody, mouse IgG1, kappa, V domains shown)
VH: B1 VH with G44R
VL: B1 VL
notes: humanized antibody of F3.121.4, VL1+VH1, murine IgG1 constant regions

Target: T1, Human CD19-his protein
Experiment: ELISA on coated human CD19-His

Row | EC50 (read off the curve) | Binder
1 | ~50 pM | B1
2 | ~50 pM | B2
3 | ~50 pM | B3

Target: T2, human CD19 on CHO-K1-human CD19 cells
Experiment: FACS on CHO-K1-human CD19 cells
Method: (§1) After the digestion was terminated, the cells were washed 2 times with a PBS buffer; and for suspension cell Raji, the supernatant of the medium was discarded by directly centrifugation, and the cell pellet was washed 2 times with PBS. After counting the cells in the previous step, the cell pellet was resuspended with [PBS+2% (w/w) BSA] blocking solution to 2×10⁶ cells/ml, and added to a 96-well FACS reaction plate at 50 μl/well, and then the sample to be tested was added at 50 μl/well, and incubated on ice for 2 h. The obtained mixture was centrifuged and washed 3 times with a PBS buffer. […] The obtained mixture was centrifuged and washed 5 times with a PBS buffer, and FACS (FACS Canto™, purchased from BD Company) was used for detection and result analysis. Data analysis was performed by software (FlowJo) to obtain the mean fluorescence intensity (MFI) of the cells. And then software (GraphPad Prism8) was used for analysis, data fitting, and EC50 value calculation. […] The same method was used to detect the binding of the chimeric antibodies to endogenous CD19-negative cells, MoLT4 cells (purchased from ATCC, CRL-1582), and CHO-K1 cells.

Row | EC50 | Maximum mean fluorescence intensity | Binder
4 | 1230 pM | 54200 MFI | B1
5 | 1100 pM | 54400 MFI | B2
6 | 1180 pM | 51600 MFI | B3

Target: T3, human CD19 exon1-3-His tag protein
Experiment: ELISA, coated human CD19 exon 1-3-His

Row | OD450 at 0.0001 nM | OD450 at 0.001 nM | OD450 at 0.01 nM | OD450 at 0.10 nM | OD450 at 1.00 nM | OD450 at 10 nM | OD450 at 100 nM | Binder
7 | 0.05 OD450 | 0.05 OD450 | 0.05 OD450 | 0.05 OD450 | 0.05 OD450 | 0.06 OD450 | 0.09 OD450 | B1
8 | 0.05 OD450 | 0.05 OD450 | 0.05 OD450 | 0.05 OD450 | 0.05 OD450 | 0.05 OD450 | 0.09 OD450 | B2
9 | 0.07 OD450 | 0.06 OD450 | 0.06 OD450 | 0.07 OD450 | 0.08 OD450 | 0.08 OD450 | 0.11 OD450 | B3

Target: T1, Human CD19-his protein
Experiment: ELISA, coated human CD19-His
Method: Human CD19-his protein (purchased from ACROBiosystems, catalog number: CD9-H52H2) was diluted with PBS to a final concentration of 4 μg/mL, and then added to a 96-well ELISA plate at 100 μl/well. The plate was sealed with a plastic film and incubated overnight at 4° C., the plate was washed 2 times with PBS the next day, and then a blocking solution [PBS+2% (w/w) BSA] was added for blocking at room temperature for 2 h. The blocking solution was poured off, and 100 nM gradiently diluted CD19 chimeric antibody or control antibody was added at 50 μl/well. After incubation at 37° C. for 2 h, the plate was washed 3 times with PBS. […] TMB substrate was added at 50 μl/well, and incubated at room temperature for 10 min, and then a stop solution (1.0 N HCl) was added at 50 μl/well. The OD450 nm values were read by an ELISA microplate reader (Multimode Plate Reader, EnSight, purchased from Perkin Elmer).

Row | OD450 at 0.0001 nM | OD450 at 0.001 nM | OD450 at 0.01 nM | OD450 at 0.10 nM | OD450 at 1.00 nM | OD450 at 10 nM | OD450 at 100 nM | Binder
10 | 0.1 OD450 | 0.13 OD450 | 0.39 OD450 | 1.7 OD450 | 2.68 OD450 | 2.58 OD450 | 3 OD450 | B1
11 | 0.1 OD450 | 0.14 OD450 | 0.42 OD450 | 1.61 OD450 | 2.55 OD450 | 2.49 OD450 | 3.09 OD450 | B2
12 | 0.12 OD450 | 0.16 OD450 | 0.44 OD450 | 1.79 OD450 | 2.73 OD450 | 2.64 OD450 | 2.84 OD450 | B3

Target: T4, human CD19 on Raji cells
Experiment: FACS on Raji cells
Method: as §1

Row | EC50 | Maximum mean fluorescence intensity | Binder
13 | 430 pM | 31700 MFI | B1
14 | 460 pM | 32000 MFI | B2
15 | 430 pM | 30500 MFI | B3

Target: T1, Human CD19-his protein
Experiment: SPR Biacore, method of example 7.1, human CD19-His
Method: A sample buffer and a running buffer were HBS-EP+ (10 mM HEPES, 150 mM NaCl, 3 mM EDTA and 0.05% surfactant P20) (GE Healthcare; BR-1006-69). The flow-through cell was set to 25° C. The sample block was set to 16° C. Both were pretreated with the running buffer. In each cycle, an antibody to be detected was first captured with a Protein A chip, and then a single concentration of CD19 antigen protein was injected. The binding and dissociation processes of the antibody and the antigen protein were recorded, and finally Glycine pH 1.5 (GE Healthcare; BR-1003-54) was used to complete chip regeneration. The binding was measured by injecting different concentrations of recombinant human CD19-His proteins in a solution for 240 s with a flow rate of 30 μl/min. The concentration started from 200 nM (see the detailed results for the actual concentration in the test) and was diluted at 1:1, making a total of 5 concentrations. The dissociation phase was monitored for up to 600 s and was triggered by switching from sample solution to running buffer. The surface was regenerated by washing with a 10 mM glycine solution (pH 1.5) for 30 s at a flow rate of 30 μl/min. Bulk refractive index difference was corrected by subtracting the response obtained from the goat anti-human Fc surface. Blank injection was also subtracted (=double reference). For calculation of apparent KD and other kinetic parameters, Langmuir 1:1 model was used.
SPR (biacore) detection and data analysis were performed according to the method in example 7.1.

Row | Kd | koff | kon | Binder
16 | 0.58 pM | 6.84e-08 s⁻¹ | 118000 M⁻¹ s⁻¹ | B1
17 | 5.02 pM | 6.17e-07 s⁻¹ | 123000 M⁻¹ s⁻¹ | B2
18 | 28.4 pM | 3.45e-06 s⁻¹ | 121000 M⁻¹ s⁻¹ | B3
